Laboratory results taken from PMC8810680 (Nature chemical biology, 2021).
“And” between values parts separate entries of the source, which are not always exact repeats. Equal values may be shown once.

How the values were obtained:
GudB6-GltA2B2 = GudB6-GltA2B2 (Bacillus subtilis, UniProt O34399+P39812); test: cryo-EM structure, […] A; format: binding; conditions: co-purified
[1] = biological target: glutamate dehydrogenase GudB (untagged, in B. subtilis NCIB 3610) (B. subtilis (endogenous in strain NCIB 3610)); test: cryo-EM structure
[2] = biological target: recombinant 6X His-tagged GudB (B. subtilis); test: cryo-EM structure
[3] = biological target: TwinStrep-tagged GltB (B. subtilis) (UniProt O34399); test: mass photometry
[4] = biological target: recombinant 6X His-tagged GudB (B. subtilis); test: native MS
[5] = biological target: glutamate dehydrogenase GudB (untagged, in B. subtilis NCIB 3610) (B. subtilis (endogenous in strain NCIB 3610)); test: native MS
[6] = biological target: recombinant Strep-tagged GudB (B. subtilis); test: native MS

Sequence of TwinStrep-tagged GltB (B. subtilis) (O34399 whole entry): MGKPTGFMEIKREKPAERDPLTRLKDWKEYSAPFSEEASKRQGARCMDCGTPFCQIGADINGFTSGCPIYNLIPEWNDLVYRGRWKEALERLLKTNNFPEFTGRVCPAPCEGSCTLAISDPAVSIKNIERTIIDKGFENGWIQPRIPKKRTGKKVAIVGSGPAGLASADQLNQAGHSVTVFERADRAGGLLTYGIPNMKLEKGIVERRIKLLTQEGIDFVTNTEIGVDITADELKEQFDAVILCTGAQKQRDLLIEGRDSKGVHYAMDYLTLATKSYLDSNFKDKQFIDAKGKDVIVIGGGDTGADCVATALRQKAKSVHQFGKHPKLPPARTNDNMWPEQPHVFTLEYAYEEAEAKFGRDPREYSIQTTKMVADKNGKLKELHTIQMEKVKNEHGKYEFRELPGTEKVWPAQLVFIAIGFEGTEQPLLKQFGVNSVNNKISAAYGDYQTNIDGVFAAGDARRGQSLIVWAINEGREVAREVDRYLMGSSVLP
Sequence of recombinant 6X His-tagged GudB (B. subtilis) (P50735 whole entry): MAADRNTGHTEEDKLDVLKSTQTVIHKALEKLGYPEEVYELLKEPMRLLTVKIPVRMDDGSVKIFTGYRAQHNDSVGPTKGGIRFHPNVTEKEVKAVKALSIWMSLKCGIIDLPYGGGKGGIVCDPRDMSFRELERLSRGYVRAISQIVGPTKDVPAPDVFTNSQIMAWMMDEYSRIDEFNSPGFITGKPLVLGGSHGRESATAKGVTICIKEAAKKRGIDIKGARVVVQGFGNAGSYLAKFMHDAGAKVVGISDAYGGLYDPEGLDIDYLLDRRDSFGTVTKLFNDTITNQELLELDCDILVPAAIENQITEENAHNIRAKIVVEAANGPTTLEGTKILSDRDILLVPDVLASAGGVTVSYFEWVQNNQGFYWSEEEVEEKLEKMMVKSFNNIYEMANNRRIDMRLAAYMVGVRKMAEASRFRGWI
Sequence of GudB6-GltA2B2 (P39812 22-1520): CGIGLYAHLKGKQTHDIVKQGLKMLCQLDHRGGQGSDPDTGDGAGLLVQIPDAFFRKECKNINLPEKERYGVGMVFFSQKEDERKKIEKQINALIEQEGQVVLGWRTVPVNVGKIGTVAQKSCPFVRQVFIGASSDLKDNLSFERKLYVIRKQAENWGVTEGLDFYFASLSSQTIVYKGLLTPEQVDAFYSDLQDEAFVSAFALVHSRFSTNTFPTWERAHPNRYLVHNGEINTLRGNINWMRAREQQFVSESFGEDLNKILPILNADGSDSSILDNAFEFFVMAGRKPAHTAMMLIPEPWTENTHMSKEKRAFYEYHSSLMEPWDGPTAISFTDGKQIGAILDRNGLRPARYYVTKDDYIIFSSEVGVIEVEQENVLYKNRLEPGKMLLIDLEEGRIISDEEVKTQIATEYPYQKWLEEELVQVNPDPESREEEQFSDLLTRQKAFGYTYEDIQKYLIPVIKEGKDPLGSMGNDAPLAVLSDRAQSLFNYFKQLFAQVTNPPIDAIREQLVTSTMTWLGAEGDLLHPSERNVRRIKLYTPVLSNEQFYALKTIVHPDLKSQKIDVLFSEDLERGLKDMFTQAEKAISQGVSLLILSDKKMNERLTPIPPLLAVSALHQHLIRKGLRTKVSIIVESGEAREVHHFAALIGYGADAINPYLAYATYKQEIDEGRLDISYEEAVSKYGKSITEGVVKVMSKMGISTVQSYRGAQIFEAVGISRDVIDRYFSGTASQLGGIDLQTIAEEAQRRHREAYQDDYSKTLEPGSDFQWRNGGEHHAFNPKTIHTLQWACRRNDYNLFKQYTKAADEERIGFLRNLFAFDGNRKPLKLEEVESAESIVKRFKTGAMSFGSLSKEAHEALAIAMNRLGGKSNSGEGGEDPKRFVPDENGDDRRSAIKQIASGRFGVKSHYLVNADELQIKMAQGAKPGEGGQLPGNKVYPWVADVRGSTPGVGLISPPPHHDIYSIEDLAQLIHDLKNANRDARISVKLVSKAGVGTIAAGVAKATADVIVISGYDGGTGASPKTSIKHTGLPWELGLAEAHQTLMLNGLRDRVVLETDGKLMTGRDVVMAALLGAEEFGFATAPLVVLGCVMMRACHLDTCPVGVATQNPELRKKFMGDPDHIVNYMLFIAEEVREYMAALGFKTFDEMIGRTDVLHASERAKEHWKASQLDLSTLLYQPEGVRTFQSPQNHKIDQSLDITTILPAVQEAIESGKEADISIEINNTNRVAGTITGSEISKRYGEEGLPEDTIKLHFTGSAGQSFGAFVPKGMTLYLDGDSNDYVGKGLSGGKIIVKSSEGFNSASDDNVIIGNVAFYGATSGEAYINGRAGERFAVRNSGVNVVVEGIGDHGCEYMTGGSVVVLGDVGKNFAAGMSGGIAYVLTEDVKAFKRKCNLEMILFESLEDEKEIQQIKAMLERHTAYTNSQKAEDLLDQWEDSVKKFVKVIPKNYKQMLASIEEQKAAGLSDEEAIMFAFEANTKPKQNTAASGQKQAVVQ
Sequence of GudB6-GltA2B2 (O34399 whole entry): as the sequence (O34399 whole entry) above
Sequence of GudB6-GltA2B2 (A0A0C3GZC9 1-424 partner): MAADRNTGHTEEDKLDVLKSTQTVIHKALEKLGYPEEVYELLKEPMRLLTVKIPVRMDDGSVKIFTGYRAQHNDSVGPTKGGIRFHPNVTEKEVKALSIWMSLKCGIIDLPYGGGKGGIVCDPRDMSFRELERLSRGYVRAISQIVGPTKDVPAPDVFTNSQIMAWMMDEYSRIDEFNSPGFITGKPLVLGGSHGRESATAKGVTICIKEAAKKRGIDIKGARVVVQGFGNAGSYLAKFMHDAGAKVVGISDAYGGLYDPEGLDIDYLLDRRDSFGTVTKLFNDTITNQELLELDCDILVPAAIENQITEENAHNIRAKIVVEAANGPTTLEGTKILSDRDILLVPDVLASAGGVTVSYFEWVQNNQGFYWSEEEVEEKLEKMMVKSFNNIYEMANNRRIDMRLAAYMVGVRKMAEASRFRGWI
Sequence of glutamate dehydrogenase GudB (untagged, in B. subtilis NCIB 3610) (B. subtilis (endogenous in strain NCIB 3610)) (P50735 whole entry): as the sequence (P50735 whole entry) above
Sequence of glutamate dehydrogenase GudB (untagged, in B. subtilis NCIB 3610) (enzyme) (P50735 whole entry): as above
Sequence of recombinant 6X His-tagged GudB (enzyme) (P50735 whole entry): as above
Sequence of recombinant Strep-tagged GudB (enzyme) (P50735 whole entry): as above

**Q.** With `[S]12[Fe]3[S]4[Fe]1[S]1[Fe]2[S]3[Fe]41` [4Fe-4S cluster] as the compound, how does the “cryo-EM structure, 2.4 A” value (GudB6-GltA2B2; two clusters, site in GltB) read?
**A.** Its value is “unambiguous assignment of two 4Fe-4S clusters in GltB”.

**Q.** With `Cc1cc2nc3c(=O)[nH]c(=O)nc-3n(C[C@H](O)[C@H](O)[C@H](O)COP(=O)(O)OP(=O)(O)OC[C@H]3O[C@@H](n4cnc5c(N)ncnc54)[C@H](O)[C@@H]3O)c2cc1C` [FAD] as the compound, how does the “cryo-EM structure, 2.4 A” value (GudB6-GltA2B2; listed among GltAB cofactors in the figure legend only) read?
**A.** The value was “The co-factors in GltAB: FAD, two 4Fe-4S clusters (SF4), 3Fe-4S cluster (F3S) and FMN”.

**Q.** For `Cc1cc2nc3c(=O)[nH]c(=O)nc-3n(C[C@H](O)[C@H](O)[C@H](O)COP(=O)(O)O)c2cc1C` [FMN], which “cryo-EM structure, 2.4 A” value (GudB6-GltA2B2; site in GltA) is on record?
**A.** Its value is “a 3Fe-4S clusters and FMN in GltA”.

**Q.** With “glutamate dehydrogenase GudB (untagged, in B. subtilis NCIB 3610) (enzyme)” as the compound, how does the stoichiometry N [1] read?
**A.** Its stoichiometry N is 6.

**Q.** With “glutamate synthase subunit GltA (from UniProt P39812 1-1520) (enzyme)” as the compound, how does the stoichiometry N (GltAB heterodimers per GudB hexamer) [2] read?
**A.** Its stoichiometry N (GltAB heterodimers per GudB hexamer) is 2 to 4.

**Q.** What about the stoichiometry N (GltAB heterodimers per GudB hexamer) [1] of the same compound?
**A.** The stoichiometry N (GltAB heterodimers per GudB hexamer) was 6.

**Q.** And the percent of counts as GltAB, no ligand [3]?
**A.** Its percent of counts as GltAB, no ligand is 5 % of counts.

**Q.** And the percent of counts as GltAB, with AKG [3]?
**A.** The percent of counts as GltAB, with AKG was 12 % of counts.

**Q.** What about the percent of counts as GltAB, with AKG and NADPH [3] of the same compound?
**A.** The percent of counts as GltAB, with AKG and NADPH was 16 % of counts.

**Q.** And the stoichiometry N (GltAB heterodimers per GudB hexamer) [4]?
**A.** The stoichiometry N (GltAB heterodimers per GudB hexamer) was 3 and 6.

**Q.** And the stoichiometry N (GltAB heterodimers per GudB hexamer) [5]?
**A.** The stoichiometry N (GltAB heterodimers per GudB hexamer) was 6.

**Q.** recombinant 6X His-tagged GudB (enzyme) was tested. Which stoichiometry N [2] did it give?
**A.** Its stoichiometry N is 6.

**Q.** For recombinant Strep-tagged GudB (enzyme), which stoichiometry N [6] is on record?
**A.** Its stoichiometry N is 6.
